Assay results published in patent US9187525B2, “Methods of treating ophthalmic diseases using NPR-B agonists” (Shire Orphan Therapies GmbH, dated 2015).
Numbered stars: 1 amine (or outer) side, 2 acyl side, 3 side chain; on linkers, the order of the positions; unused ones are H or OH. Square brackets hold non-standard residues; d marks the D form. Primed or numbered codes have the meaning given here. Ends that are not written are not given here. * marks the point of attachment. abu(pip) = (R)-2-amino-4-(piperidin-1-yl)butanoic acid, O=C([C@@H](CCN1CCCCC1)N[*:1])[*:2]; Pro(trans-4-NH2) = O=C([C@@H]1C[C@@H](N[*:3])CN1[*:1])[*:2]; Sni = (S)-nipecotic acid, O=C([C@H]1CCCN([*:1])C1)[*:2]; Bmf = rac-2-amino-3-phenyl-butyric acid; Fhy = Amino-piperidin-3-yl-acetic acid; Gly(cPent) = N[C@H](C(=O)O)C1CCCC1; Hyp = O=C(O)[C@@H]1C[C@@H](O)CN1; AR‑314‑145 = not defined here; AR‑314‑169 = not defined here; AR‑314‑170 = not defined here; AR‑314‑171 = not defined here; AR‑314‑172 = not defined here; AR‑385‑008 = not defined here; AR‑385‑017 = not defined here; AR‑385‑042 = not defined here; NMeL = CN[C@@H](CC(C)C)C(=O)O; AR‑385‑12 = not defined here; Phg = N[C@H](C(=O)O)c1ccccc1; orn(Me2) = not defined here; Octanoyl = CCCCCCCC(=O)*; Sni″ = not defined here; Az3 = not defined here; Che = not defined here; Fbz = not defined here; Oct = not defined here; aze = not defined here; hse = not defined here; leu = not defined here; Occ = octanoic acid

T1: natriuretic peptide receptor-B (human)
T1 chain: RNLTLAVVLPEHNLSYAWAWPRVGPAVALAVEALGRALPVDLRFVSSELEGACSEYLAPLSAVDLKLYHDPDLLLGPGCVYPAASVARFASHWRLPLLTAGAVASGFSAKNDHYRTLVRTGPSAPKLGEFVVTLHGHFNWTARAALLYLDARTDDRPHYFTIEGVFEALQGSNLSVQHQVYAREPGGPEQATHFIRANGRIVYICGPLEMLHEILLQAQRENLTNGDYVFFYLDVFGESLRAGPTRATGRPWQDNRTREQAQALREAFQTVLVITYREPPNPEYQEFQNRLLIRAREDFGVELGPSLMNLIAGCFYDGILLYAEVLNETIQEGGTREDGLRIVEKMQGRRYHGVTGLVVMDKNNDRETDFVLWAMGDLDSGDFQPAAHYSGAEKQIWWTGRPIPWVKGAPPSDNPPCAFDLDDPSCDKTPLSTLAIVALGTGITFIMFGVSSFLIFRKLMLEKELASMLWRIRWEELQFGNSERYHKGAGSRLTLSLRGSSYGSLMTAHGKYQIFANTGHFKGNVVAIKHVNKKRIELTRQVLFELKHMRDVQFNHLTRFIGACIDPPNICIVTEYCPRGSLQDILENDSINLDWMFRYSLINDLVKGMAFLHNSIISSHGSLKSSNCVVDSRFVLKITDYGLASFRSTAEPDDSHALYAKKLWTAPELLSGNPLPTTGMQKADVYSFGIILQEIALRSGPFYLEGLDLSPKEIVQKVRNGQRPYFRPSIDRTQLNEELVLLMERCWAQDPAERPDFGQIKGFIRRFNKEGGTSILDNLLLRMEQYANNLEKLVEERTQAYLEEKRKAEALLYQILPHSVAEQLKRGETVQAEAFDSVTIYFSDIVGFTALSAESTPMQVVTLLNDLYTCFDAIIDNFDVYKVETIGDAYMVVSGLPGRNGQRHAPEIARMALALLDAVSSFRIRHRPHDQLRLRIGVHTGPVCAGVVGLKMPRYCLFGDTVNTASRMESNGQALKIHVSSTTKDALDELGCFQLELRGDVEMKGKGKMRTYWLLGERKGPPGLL

B1: JAL-1844 (peptide)
peptide: [Oct][Sni]F[leu]L[Pro(trans-4-NH2)][NMeL]VP[Che]
modifications: reading uncertain; also: printed as Oct-Sni-Phe-leu-Leu-Tap-Nml-Val-Pro-Che
B2: JAL-1845 (peptide)
peptide: [Occ][Sni]F[orn(Me2)]L[Hyp][NMeL]VP[Che]
modifications: reading uncertain; also: printed as Occ-Sni-Phe-orn(Me2)-Leu-Hyp-Nml-Val-Pro-Che
B3: JAL-1846 (peptide)
peptide: [Occ][Sni]F[orn(Me2)]L[Pro(trans-4-NH2)][NMeL]VP[Che]
modifications: reading uncertain; also: printed as Occ-Sni-Phe-orn(Me2)-Leu-Tap-Nml-Val-Pro-Che
B4: JAL-1847 (peptide)
peptide: [Oct][Sni]F[orn(Me2)]L[Hyp][NMeL]VP[Che]
modifications: reading uncertain; also: printed as Oct-Sni-Phe-orn(Me2)-Leu-Hyp-Nml-Val-Pro-Che
B5: JAL-0740 (peptide)
peptide: Octanoyl-[aze]FGLKLDRI-NH2
modifications: reading uncertain; also: printed as Occ-aze-Phe-Gly-Leu-Lys-Leu-Asp-Arg-Ile-NH2
B6: JAL-1848 (peptide)
peptide: [Oct][Sni]F[leu]L[Hyp][NMeL]VR[Che]
modifications: reading uncertain; also: printed as Oct-Sni-Phe-leu-Leu-Hyp-Nml-Val-Arg-Che
B7: JAL-1849 (peptide)
peptide: [Oct][Sni]F[leu]L[Pro(trans-4-NH2)][NMeL]VR[Che]
modifications: reading uncertain; also: printed as Oct-Sni-Phe-leu-Leu-Tap-Nml-Val-Arg-Che
B8: JAL-1850 (peptide)
peptide: [Occ][Sni]F[orn(Me2)]L[Pro(trans-4-NH2)][NMeL]VR[Che]
modifications: reading uncertain; also: printed as Occ-Sni-Phe-orn(Me2)-Leu-Tap-Nml-Val-Arg-Che
B9: JAL-1851 (peptide)
peptide: [Oct][Sni]F[orn(Me2)]L[Hyp][NMeL]VR[Che]
modifications: reading uncertain; also: printed as Oct-Sni-Phe-orn(Me2)-Leu-Hyp-Nml-Val-Arg-Che
B10: JAL-1857 (peptide)
peptide: [Occ][Sni]F[leu]L[Hyp][NMeL][Bmf]RI-NH2
modifications: reading uncertain; also: printed as Occ-Sni-Phe-leu-Leu-Hyp-Nml-Bmf-Arg-Ile-NH2
B11: JAL-1858 (peptide)
peptide: [Occ][Sni]F[leu]L[Hyp][NMeL][Phg]RI-NH2
modifications: reading uncertain; also: printed as Occ-Sni-Phe-leu-Leu-Hyp-Nml-Phg-Arg-Ile-NH2
B12: JAL-1859 (peptide)
peptide: [Occ][Sni]F[leu]L[Hyp][NMeL][Gly(cPent)]RI-NH2
modifications: reading uncertain; also: printed as Occ-Sni-Phe-leu-Leu-Hyp-Nml-Cpg-Arg-Ile-NH2
B13: JAL-1864 (peptide)
peptide: [Occ][Sni]F[leu]L[Hyp][NMeL][AR‑314‑145]RI-NH2
modifications: reading uncertain; also: printed as Occ-Sni-Phe-leu-Leu-Hyp-Nml-(AR-314-145)-Arg-Ile-NH2
B14: JAL-1868-2 (peptide)
peptide: [AR‑314‑169]F[leu]L[Hyp][NMeL]DRI-NH2
modifications: reading uncertain; also: printed as (AR-314-169)-Phe-leu-Leu-Hyp-Nml-Asp-Arg-Ile-NH2
B15: JAL-1869-2 (peptide)
peptide: [AR‑314‑170]F[leu]L[Hyp][NMeL]DRI-NH2
modifications: reading uncertain; also: printed as (AR-314-170)-Phe-leu-Leu-Hyp-Nml-Asp-Arg-Ile-NH2
B16: JAL-0742 (peptide)
peptide: [Occ][Az3]FGLKLDRI-NH2
modifications: reading uncertain; also: printed as Occ-Az3-Phe-Gly-Leu-Lys-Leu-Asp-Arg-Ile-NH2
B17: JAL-1870-2 (peptide)
peptide: [AR‑314‑171]F[leu]L[Hyp][NMeL]DRI-NH2
modifications: reading uncertain; also: printed as (AR-314-171)-Phe-leu-Leu-Hyp-Nml-Asp-Arg-Ile-NH2
B18: JAL-1873 (peptide)
peptide: [AR‑385‑008][leu]L[Hyp][NMeL]DRI-NH2
modifications: reading uncertain; also: printed as (AR-385-008)-leu-Leu-Hyp-Nml-Asp-Arg-Ile-NH2
B19: JAL-1874 (peptide)
peptide: [AR‑314‑172][leu]L[Hyp][NMeL]DRI-NH2
modifications: reading uncertain; also: printed as (AR-314-172)-leu-Leu-Hyp-Nml-Asp-Arg-Ile-NH2
B20: JAL-1877 (peptide)
peptide: [Occ][Sni]F[AR‑385‑12]L[Hyp][NMeL]DRI-NH2
modifications: reading uncertain; also: printed as Occ-Sni-Phe-(AR-385-12)-Leu-Hyp-Nml-Asp-Arg-Ile-NH2
B21: JAL-1878 (peptide)
peptide: [Occ][Sni]F[hse]L[Hyp][NMeL]DRI-NH2
modifications: reading uncertain; also: printed as Occ-Sni-Phe-hse-Leu-Hyp-Nml-Asp-Arg-Ile-NH2
B22: JAL-1879 (peptide)
peptide: [Occ][Sni]F[abu(pip)]L[Hyp][NMeL]DRI-NH2
B23: JAL-1880 (peptide)
peptide: [AR‑385‑042][leu]L[Hyp][NMeL]DRI-NH2
modifications: reading uncertain; also: printed as (AR-385-042)-leu-Leu-Hyp-Nml-Asp-Arg-Ile-NH2
B24: JAL-1881 (peptide)
peptide: [Occ][Sni]F[Fbz]L[Hyp][NMeL]DRI-NH2
modifications: reading uncertain; also: printed as Occ-Sni-Phe-Fbz-Leu-Hyp-Nml-Asp-Arg-Ile-NH2
B25: JAL-1882 (peptide)
peptide: [Occ][Sni]F[Fhy]L[Hyp][NMeL]DRI-NH2
B26: JAL-1883 (peptide)
peptide: Octanoyl-[Sni]FTL[Hyp][NMeL]DRI-NH2
modifications: not fully specified (some residues); printed as Occ-Sni-Phe-thr-Leu-Hyp-Nml-Asp-Arg-Ile-NH2
B27: JAL-0743 (peptide)
peptide: [Occ][Sni″]FGLKLDRI-NH2
modifications: reading uncertain; also: printed as Occ-Sni-Phe-Gly-Leu-Lys-Leu-Asp-Arg-Ile-NH2
B28: JAL-1884 (peptide)
peptide: Octanoyl-[Sni]FHL[Hyp][NMeL]DRI-NH2
modifications: not fully specified (some residues); printed as Occ-Sni-Phe-his-Leu-Hyp-Nml-Asp-Arg-Ile-NH2
B29: JAL-1885 (peptide)
peptide: [Occ][Sni]F[metO2]L[Hyp][NMeL]DRI-NH2
B30: JAL-1886 (peptide)
peptide: [Occ][Sni]F[AR‑385‑017]L[Hyp][NMeL]DRI-NH2
modifications: reading uncertain; also: printed as Occ-Sni-Phe-(AR-385-017)-Leu-Hyp-Nml-Asp-Arg-Ile-NH2

Molecular target: T1, natriuretic peptide receptor-B
Assay: cell-based or functional assay

| EC50 group, cGMP in GTM-3 cells [µM] | Binder |
| --- | --- |
| ≤ 5 | B1 |
| ≤ 5 | B2 |
| ≤ 5 | B3 |
| ≤ 15 | B4 |
| ≤ 15 | B5 |
| ≤ 5 | B6 |
| ≤ 5 | B7 |
| ≤ 1 | B8 |
| ≤ 5 | B9 |
| ≤ 15 | B10 |
| ≤ 15 | B11 |
| ≤ 5 | B12 |
| ≤ 15 | B13 |
| ≤ 5 | B14 |
| ≤ 15 | B15 |
| ≤ 15 | B16 |
| ≤ 15 | B17 |
| ≤ 15 | B18 |
| ≤ 5 | B19 |
| ≤ 1 | B20 |
| ≤ 5 | B21 |
| ≤ 5 | B22 |
| ≤ 5 | B23 |
| ≤ 5 | B24 |
| ≤ 5 | B25 |
| ≤ 15 | B26 |
| ≤ 5 | B27 |
| ≤ 5 | B28 |
| ≤ 5 | B29 |
| ≤ 5 | B30 |
